Data from the supplement of paper PMC10567573.

B1: ANKRD40 (parent)
chain: VRIQNPSLRENDFIEIELDRQELT
B2: TRIM55 (parent)
chain: FQMEKIEHGYENMNHFTVNLNREE

Variants of: B1
Assay: protein stability index of a GFP-peptide fusion (GPS, HEK-293T) (PSI 1-6); higher = more stable
Details: c terminus: a fixed tail appended
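Further: lentivirally expressed fusions sorted by FACS into six bins by GFP to DsRed ratio, PSI derived from sequencing read proportions per bin multiplied by bin number.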

Protein stability index: each site, then its substitutions
N11: K 2.94; H 2.39; C 1.69; I 1.94
R9: Y 1.78; W 2.14; V 2.03
L18: I 2.01; G 4.38; F 2.12; K 4.62; N 4.72; R 4.37; V 2.85; T 4.51; Y 3.03; H 4.48; A 4.2; S 4.81; P 4.35; M 3.3; E 5.04; D 4.8; C 3.61; Q 4.7; W 1.82
E10: V 2.05; N 2.15; Q 2.37; W 1.91; Y 1.51; F 1.92; K 2.08; R 1.84; G 1.85; S 2.51; M 1.74; L 1.53; H 2.38; C 1.73; A 2.27; I 2; T 2.28; P 2.5; D 2.31
E22: P 2.34; D 2.87; G 1.92; R 2.65; Y 2.37; V 2.1; A 2.36; C 1.68; F 2.47; S 2.1; L 2.61; K 2.28; T 2.06; W 1.82; N 2.34; H 2.57; Q 1.86; I 2.73; M 1.93
I14: N 4.85; Y 3.73; P 4.27; E 4.92; Q 4.31; A 4; T 3.88; K 4.47; F 2.87; R 4.34; M 3.34; W 2.49; D 5.22; V 3.1; S 4.42; H 4.66; L 3; C 3.43; G 3.87
I16: K 4.69; F 2.83; D 5; N 5.11; L 2.65; C 4.09; Q 4.68; V 3.49; S 4.47; P 4.67; R 4.75; A 4.19; Y 3.15; H 4.59; M 3.49; E 4.8; W 2.89; T 4.44; G 4.55
L23: I 2.45; G 3.99; A 3.58; F 2.07; H 3.92; V 2.95; M 2.77; N 3.69; S 3.89; P 3.26; D 4.25; T 3.52; K 3.69; R 3.73; C 2.8; E 4.27; Y 2.48; W 2.42; Q 3.44

Variants of: B2
Assay: as above
Details: c terminus: a fixed tail appended

Protein stability index: each site, then its substitutions
F1: S 4.48; G 4.78; I 4.23; D 4.61; K 4.17; W 3.78; R 4.45; Y 3.3; P 4.65; A 4.71; L 4.05; C 3.72; Q 4.85; V 4.19; M 4.27; N 5.02; H 4.58; T 4.67; E 5.1
M3: D 4.53; K 2.68; G 3.62; F 2.86; I 2.82; E 5.07; A 2.57; H 3.43; C 2.83
Q2: Y 2.52; D 4.1; K 3.49; W 2.62; F 2.69; T 3.35; M 3.42; L 2.96; G 3.7; S 3.98; A 3.14; H 2.28; E 4.49; P 3.86; I 2.06; N 3.8; R 3.07; C 2.57
